Assay results published in the supplement of paper PMC9732359.
± gives the uncertainty stated by the source.

Assay: protein stability index of a GFP-peptide fusion (yeast GPS) (PSI 1-4); higher = more stable; sorted into four equal gates, so the index is relative within each strain
Procedure, shortened: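 Tiled yeast protein peptides of 17 residues were each joined downstream of GFP, on plasmids that also express Cherry. The pooled library was maintained in yeast, and mid-log cultures in leucine-free medium were sorted into four equal gates on the GFP/Cherry ratio. Plasmids from every gate were amplified by PCR and sequenced on Illumina, with barcodes linking reads to strains. The protein stability index of a peptide is its gate-number-weighted read frequency summed over the gates.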

| Sequence | protein stability index (doa10∆) | protein stability index (pdr5∆) | protein stability index (san1∆) | protein stability index (ubr1∆) |
| --- | --- | --- | --- | --- |
| LDKFTDGGLFTLFVRDQ [QCR2] | 2.98 ± 0.093 | 3.14 ± 0.07 | 3.19 ± 0.055 | 3.31 ± 0.054 |
| LILQRLKDLNLTVSIKI [RGR1] | 1.76 ± 0.073 | 1.96 ± 0.071 | 2.65 ± 0.072 | 1.98 ± 0.052 |
| IIPSRMGEAQTGANFDD [REC8] | 1.93 ± 0.089 | 2.16 ± 0.12 | 3.04 ± 0.25 | 2.74 ± 0.1 |
| RQLANLIPFIVKQVLLS [NUT1] | 1.62 ± 0.032 | 1.55 ± 0.028 | 1.59 ± 0.051 | 1.69 ± 0.033 |
| SSHLSDNDFIINDFKKI [POP5] | 3.06 ± 0.077 | 2.73 ± 0.067 | 2.75 ± 0.055 | 2.74 ± 0.036 |
| HLALEIGEVYNDQVEKD [RPN1] | – | – | 3.41 ± 0.19 | – |
| CTEAGLLALRERRMQVT [RPT2] | 2.17 ± 0.092 | 2.9 ± 0.15 | 2.33 ± 0.14 | 2.7 ± 0.11 |
| NISHLLEIASSIDCLLI [SWI1] | 2.21 ± 0.068 | 2.16 ± 0.046 | 2.29 ± 0.078 | 2.04 ± 0.035 |
| AYSMGAQNQGGQVSMSQ [PGD1] | 3.15 ± 0.095 | 3.2 ± 0.084 | 3.02 ± 0.094 | 3.22 ± 0.076 |
| MAGLSFDNYQRNNFLAE [PUP1] | 3.61 ± 0.17 | 3.58 ± 0.1 | 3.29 ± 0.084 | 3.39 ± 0.092 |
| ASRNVWSFYNGNVLIND [SNU114] | 2.87 ± 0.12 | 3.1 ± 0.082 | 3.5 ± 0.053 | 2.99 ± 0.063 |
| KKEATKPAFSFGINTNT [YLR335W/NUP2] | 2.99 ± 0.062 | 3.02 ± 0.086 | 3.26 ± 0.038 | 3.35 ± 0.056 |
| RNEEILRDIGECENEIK [SMC2] | 2.75 ± 0.094 | 2.94 ± 0.075 | 2.49 ± 0.12 | 3.23 ± 0.11 |
| FFAYFIGWCKEDPKRRA [YJL039C/NUP192] | 2.15 ± 0.15 | 2.03 ± 0.078 | 2.61 ± 0.057 | 3.21 ± 0.066 |
| SDIESLEALMDILLCYQ [SRB8] | 2.84 ± 0.13 | 2.74 ± 0.2 | 3.03 ± 0.19 | 2.29 ± 0.2 |
| LGEEHPLQVARCTKIIK [RPT1] | 2.18 ± 0.082 | 2.78 ± 0.073 | 2.75 ± 0.082 | 2.39 ± 0.085 |
| APVETKKKRFEIKKWTA [HRT1] | 3.15 ± 0.094 | 3.48 ± 0.13 | 2.93 ± 0.12 | 3.27 ± 0.09 |
| VHCRISCQIAQPYEDRP [RRP45] | 1.63 ± 0.064 | 2.12 ± 0.12 | 1.52 ± 0.22 | 1.92 ± 0.077 |
| PFHSHLLVPASDLINKD [FAS1] | 1.83 ± 0.03 | 2.15 ± 0.035 | 2.13 ± 0.048 | 1.96 ± 0.032 |
| AQQQKRGGFGGRNRGRP [RPS2] | 3.32 ± 0.17 | 3.26 ± 0.13 | 3.31 ± 0.069 | 3.51 ± 0.15 |
| RNAALRAKAEAAEFRYK [SCL1] | 2.9 ± 0.068 | 3.28 ± 0.072 | 2.93 ± 0.056 | 3 ± 0.057 |
| HKVQTKLTRELEKKFQD [RPS7A] | 2.43 ± 0.066 | 2.01 ± 0.06 | 2.37 ± 0.091 | 2.54 ± 0.048 |
| QLLQRLNDMNTEISGLK [SMC3] | 3.28 ± 0.081 | 3.38 ± 0.1 | 3.22 ± 0.06 | 3.3 ± 0.058 |
| NETNDKKRNPSKQNGSK [PRP28] | 3.21 ± 0.096 | 3.15 ± 0.066 | 3.02 ± 0.051 | 3.23 ± 0.039 |
| QEETVVEQTAEVTIEDA [RPS12] | 3.36 ± 0.12 | 3.38 ± 0.13 | 3.19 ± 0.048 | 3.33 ± 0.056 |
| GDVGKNHITEFPSIPLP [RPC31] | 3.21 ± 0.087 | 3.23 ± 0.087 | 3.31 ± 0.079 | 3.22 ± 0.093 |

| Sequence | protein stability index (doa10∆) | protein stability index (pdr5∆) | protein stability index (san1∆) | protein stability index (ubr1∆) |
| --- | --- | --- | --- | --- |
| TSSQKEPFFLVTKITDM [SRB8] | 2.36 ± 0.059 | 2.72 ± 0.071 | 2.52 ± 0.054 | 2.62 ± 0.054 |
| PTQITQYTQRLSKLEKA [SRP68] | 1.75 ± 0.06 | 2.08 ± 0.045 | 2.06 ± 0.079 | 2.48 ± 0.045 |
| LSLGEAFKKIDAITVKD [COR1] | 3.39 ± 0.29 | – | – | 3.71 ± 0.19 |
| TARRNVSGDAAALFRLH [SWI3] | 2.43 ± 0.093 | 2.98 ± 0.099 | 2.78 ± 0.086 | 1.95 ± 0.063 |
| VTHDCYRVTLESILQMN [RPC34] | 3.29 ± 0.28 | 2.39 ± 0.27 | 2.66 ± 0.16 | – |
| EDGMIIDVNLNFARQLL [RRP40] | 3.15 ± 0.086 | 3.23 ± 0.074 | 3.26 ± 0.079 | 3.11 ± 0.063 |
| NLQREIDQAHVSEITKL [RPN14] | 2.61 ± 0.044 | 2.81 ± 0.058 | 2.75 ± 0.054 | 2.69 ± 0.05 |
| LSALFTISSKPDILATD [YCS4] | 2.32 ± 0.14 | 2.78 ± 0.14 | 2.72 ± 0.088 | 2.98 ± 0.11 |
| LRELSCCINAAFLALVD [RRP46] | 2.38 ± 0.059 | 2.81 ± 0.074 | 2.88 ± 0.051 | 2.65 ± 0.065 |
| RAINKVLCTRLRLSNFF [SIR2] | 1.72 ± 0.059 | 1.3 ± 0.059 | 1.18 ± 0.12 | 1.08 ± 0.034 |
| QQQLYGGNNNNNSTGIA [SWI1] | 3.12 ± 0.076 | 3.15 ± 0.066 | 3.25 ± 0.053 | 3.11 ± 0.045 |
| NGCIFTLNPKTGHLFLK [PRP8] | 3.24 ± 0.064 | 2.92 ± 0.082 | 2.98 ± 0.083 | 2.97 ± 0.083 |
| VDQNPLTMHKIIQLILW [SRB8] | 1.47 ± 0.085 | 1.6 ± 0.086 | 1.23 ± 0.17 | 1.36 ± 0.081 |
| GSVLLTLLNFVSNNVLR [ECM29] | 1.43 ± 0.054 | 1.31 ± 0.059 | 1.67 ± 0.1 | 2.03 ± 0.073 |
| YDKKKRVVVPQALRVLR [RPL16B] | 1.82 ± 0.043 | 2.09 ± 0.059 | 2.17 ± 0.084 | 1.82 ± 0.059 |
| VECAQHCIDYLRKNKLG [SMC4] | 1.44 ± 0.07 | 1.19 ± 0.068 | 1.62 ± 0.1 | 1.36 ± 0.058 |
| VHGKAPMLMANNDVFTI [SSN3] | 2.79 ± 0.068 | 2.47 ± 0.07 | 2.48 ± 0.095 | 2.72 ± 0.074 |
| SDLKGKLSSAENANADL [YIL149C/MLP2] | 3.37 ± 0.15 | 3.35 ± 0.1 | 3.17 ± 0.12 | 3.17 ± 0.071 |
| SIEMEEETDDEDKQNIE [RRI2] | 3.25 ± 0.13 | 3.32 ± 0.11 | 3.39 ± 0.062 | 3.19 ± 0.061 |
| NVRSVIRSSRSRGIVIG [RPP1] | 3 ± 0.076 | 3.1 ± 0.078 | 3.15 ± 0.16 | 3.2 ± 0.072 |
| DPALLRPGRIDRKIEFP [RPT6] | 3.18 ± 0.075 | 3.32 ± 0.077 | 3.05 ± 0.057 | 3.26 ± 0.048 |
| SSWQIYSDENDPSISNN [RRP4] | 2.48 ± 0.12 | 3.16 ± 0.11 | 3.06 ± 0.072 | 3.33 ± 0.14 |
| NKYQIKKAVKELYEVDV [RPL25] | 3.03 ± 0.077 | 3.15 ± 0.078 | 3.12 ± 0.042 | 3.21 ± 0.06 |
| VQDKDTLSNAERAKNVN [GAL11] | – | 2.71 ± 0.23 | 2.71 ± 0.18 | 2.91 ± 0.12 |
| QNYRLDGRSFDQFRDVE [RRP45] | 3.42 ± 0.15 | 3.26 ± 0.16 | 3.34 ± 0.13 | 3.32 ± 0.092 |
| SNSNVTNPSSIFGGAGG [YOR098C/NUP1] | 2.89 ± 0.049 | 2.77 ± 0.05 | 2.29 ± 0.052 | 2.87 ± 0.045 |
